Assay results published in article PMC12381745.

Columns and labels:
[1] = molecular target: LHD101B-αLux; assay: split reporter (BiFC, NanoBiT); time-course luminescence; protein-linker-RNA conjugate of A and protein B preincubated until a baseline signal, then RNase A added manually after 30 min; S/B = maximum signal after RNA cleavage divided by the baseline signal
[2] = molecular target: LHD101B-αLux; assay: split reporter (BiFC, NanoBiT); protein-linker conjugates of protein A with protein B in solution; luminescence relative to the naked cysteine mutant (Figure 2c)
[3] = molecular target: LHD101B-αLux; assay: split reporter (BiFC, NanoBiT); 96-well plate; 2.5 nM BC10 and 2.5 nM B protein with preincubated 100 nM Cas13 and 50 nM crRNA1 in 1x HBS-EP+ buffer, 50 μM LuxSit Pro Substrate; target RNA added after 5 min of baseline; 1 h at room temperature

Binder | S/B change (maximum signal after RNA cleavage by RNase A divided by the baseline signal with intact RNA) [1] | also measured
LHD101A-βit I61C-L1-RNA protein-linker-RNA conjugate (designed binder, here or on the partner: cysteine 61 joined by thiol-maleimide Michael addition to linker L1, whose DBCO is joined by SPAAC to the azide-functionalised 17mer RNA conjRNA1) SELAVVAAIISAVARMGVKMELHPSGNEVKVVIKGLHIKQQRQLYRDVREAAKKAGVEVECEVEGDTVTIVVRG | > 1.3 | 
LHD101A-βit G65C-L1-RNA protein-linker-RNA conjugate (designed binder, here or on the partner: cysteine 65 joined by thiol-maleimide Michael addition to linker L1, whose DBCO is joined by SPAAC to the azide-functionalised 17mer RNA conjRNA1) SELAVVAAIISAVARMGVKMELHPSGNEVKVVIKGLHIKQQRQLYRDVREAAKKAGVEVEIEVECDTVTIVVRG | > 1.3 | 
LHD101A-βit E60C-L1 protein-linker conjugate (designed binder, here or on the partner: cysteine 60 joined by thiol-maleimide Michael addition to linker L1 (maleimide-DBCO, shorter, more rigid)) SELAVVAAIISAVARMGVKMELHPSGNEVKVVIKGLHIKQQRQLYRDVREAAKKAGVEVCIEVEGDTVTIVVRG |  | luminescence signal relative to the naked cysteine mutant [2]: > 20%
LHD101A-βit E62C-L2-RNA protein-linker-RNA conjugate (designed binder, here or on the partner: cysteine 62 joined by thiol-maleimide Michael addition to linker L2, whose DBCO is joined by SPAAC to the azide-functionalised 17mer RNA conjRNA1) SELAVVAAIISAVARMGVKMELHPSGNEVKVVIKGLHIKQQRQLYRDVREAAKKAGVEVEICVEGDTVTIVVRG | 1.89 | 
LHD101A-βit E62C-L1-RNA protein-linker-RNA conjugate (designed binder, here or on the partner: cysteine 62 joined by thiol-maleimide Michael addition to linker L1, whose DBCO is joined by SPAAC to the azide-functionalised 17mer RNA conjRNA1) SELAVVAAIISAVARMGVKMELHPSGNEVKVVIKGLHIKQQRQLYRDVREAAKKAGVEVEICVEGDTVTIVVRG | 2 | maximum S/B ratio (signal after RNA cleavage by activated Cas13 divided by the baseline signal with intact RNA) [3]: 1.6; maximum luminescence signal after RNA cleavage by RNase A [1]: 100000 RLU
LHD101A-βit G65C-L2-RNA protein-linker-RNA conjugate (designed binder, here or on the partner: cysteine 65 joined by thiol-maleimide Michael addition to linker L2, whose DBCO is joined by SPAAC to the azide-functionalised 17mer RNA conjRNA1) SELAVVAAIISAVARMGVKMELHPSGNEVKVVIKGLHIKQQRQLYRDVREAAKKAGVEVEIEVECDTVTIVVRG | > 1.3 | 
LHD101A-βit I61C-L2-RNA protein-linker-RNA conjugate (designed binder, here or on the partner: cysteine 61 joined by thiol-maleimide Michael addition to linker L2, whose DBCO is joined by SPAAC to the azide-functionalised 17mer RNA conjRNA1) SELAVVAAIISAVARMGVKMELHPSGNEVKVVIKGLHIKQQRQLYRDVREAAKKAGVEVECEVEGDTVTIVVRG | > 1.3 | 
LHD101A-βit E60C-L2 protein-linker conjugate (designed binder, here or on the partner: cysteine 60 joined by thiol-maleimide Michael addition to linker L2 (maleimide-DBCO, longer, more flexible)) SELAVVAAIISAVARMGVKMELHPSGNEVKVVIKGLHIKQQRQLYRDVREAAKKAGVEVCIEVEGDTVTIVVRG |  | luminescence signal relative to the naked cysteine mutant [2]: > 20%
